From PMC7797054, “Structural basis for inhibition of the type I-F CRISPR–Cas surveillance complex by AcrIF4, AcrIF7 and AcrIF14” (Nucleic Acids Research, 2020) come the findings set out here.

The target of data set [1] is type I-F CRISPR-Cas surveillance complex (the Csy complex) from Pseudomonas aeruginosa PA14 (Pseudomonas aeruginosa) (UniProt Q02ML9). Nature of the data set: cryo-EM structure; Csy incubated with AcrIF protein at molar ratio 1:10 for 1 h on ice, SEC in 20 mM HEPES pH 7.5, 100 mM KCl, 5% glycerol, 1 mM TCEP; 0.5 mg/ml on UltrAuFoil grids, Titan Krios 300 kV.
Chain of type I-F CRISPR-Cas surveillance complex (the Csy complex) from Pseudomonas aeruginosa PA14 (Pseudomonas aeruginosa) (Q02ML9 whole entry, chain 1 of 3): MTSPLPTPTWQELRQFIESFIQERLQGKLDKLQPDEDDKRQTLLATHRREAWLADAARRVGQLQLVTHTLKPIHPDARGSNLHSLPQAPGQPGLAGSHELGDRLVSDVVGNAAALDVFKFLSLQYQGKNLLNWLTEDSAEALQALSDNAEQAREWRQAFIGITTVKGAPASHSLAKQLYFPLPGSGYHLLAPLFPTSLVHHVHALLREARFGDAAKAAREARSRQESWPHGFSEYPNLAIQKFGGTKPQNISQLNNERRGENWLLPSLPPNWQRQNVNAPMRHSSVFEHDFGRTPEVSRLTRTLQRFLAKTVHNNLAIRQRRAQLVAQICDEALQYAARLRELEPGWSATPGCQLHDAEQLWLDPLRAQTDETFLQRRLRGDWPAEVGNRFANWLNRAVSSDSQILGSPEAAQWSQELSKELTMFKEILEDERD
Chain of type I-F CRISPR-Cas surveillance complex (the Csy complex) from Pseudomonas aeruginosa PA14 (Pseudomonas aeruginosa) (Q02MM0 whole entry, chain 2 of 3, further chain): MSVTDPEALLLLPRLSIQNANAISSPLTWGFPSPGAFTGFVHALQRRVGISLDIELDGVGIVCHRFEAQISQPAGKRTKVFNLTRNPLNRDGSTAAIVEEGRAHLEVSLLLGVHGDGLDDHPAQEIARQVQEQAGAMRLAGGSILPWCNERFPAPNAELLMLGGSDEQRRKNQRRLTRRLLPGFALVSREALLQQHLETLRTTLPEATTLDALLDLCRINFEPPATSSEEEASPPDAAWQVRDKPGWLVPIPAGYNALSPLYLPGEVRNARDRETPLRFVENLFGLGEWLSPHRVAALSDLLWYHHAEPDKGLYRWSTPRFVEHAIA
Chain of type I-F CRISPR-Cas surveillance complex (the Csy complex) from Pseudomonas aeruginosa PA14 (Pseudomonas aeruginosa) (Q02MM2 whole entry, chain 4 of 3, further chain): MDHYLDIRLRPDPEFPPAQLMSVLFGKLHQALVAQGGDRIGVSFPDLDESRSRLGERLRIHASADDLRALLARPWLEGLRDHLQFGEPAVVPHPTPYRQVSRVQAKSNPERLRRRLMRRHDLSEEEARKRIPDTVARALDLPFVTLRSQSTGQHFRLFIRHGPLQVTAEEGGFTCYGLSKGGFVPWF
Data set [2] deals with the molecule itself. The data set is described as above.

The stoichiometry N is a count of units in the complex or per binding partner. Consider AcrIF14 (natural protein), for which the stoichiometry N in data set [1] turned out to be 2.

B1: Cas7f subunit of the Csy complex (natural protein, Pseudomonas aeruginosa)
chain: MSKPILSTASVLAFERKLDPSDALMSAGAWAQRDASQEWPAVTVREKSVRGTISNRLKTKDRDPAKLDASIQSPNLQTVDVANLPSDADTLKVRFTLRVLGGAGTPSACNDAAYRDKLLQTVATYVNDQGFAELARRYAHNLANARFLWRNRVGAEAVEVRINHIRQGEVARAWRFDALAIGLRDFKADAELDALAELIASGLSGSGHVLLEVVAFARIGDGQEVFPSQELILDKGDKKGQKSKTLYSVRDAAAIHSQKIGNALRTIDTWYPDEDGLGPIAVEPYGSVTSQGKAYRQPKQKLDFYTLLDNWVLRDEAPAVEQQHYVIANLIRGGVFGEAEEK
notes: Cas7f (Csy3) of Pseudomonas aeruginosa PA14; Stood in the assay as a subunit (six copies) of the whole Csy complex; It may carry the His tag of the complex (surmise); also called Cas7.1f-Cas7.6f; Cas7.4f; source: E. coli BL21 (DE3), co-expressed and purified as part of the Csy complex (HisTrap HP, HiTrap Q, Superdex 200)
With B1, the “stoichiometry N” value in data set [2] worked out at 6.
